Consider five molecules from PMC3913770, “Characterization of New Polyol/H^+ Symporters in Debaryomyces hansenii” (PLoS ONE, 2014).

The target of one data set is T1, DhSgl1 (Debaryomyces hansenii, UniProt Q6BN62).
T1 construct: gene DEHA2E24310g; full-length ORF (626 aa) without stop, C-terminal GFP, plasmid pUG35, in S. cerevisiae YSH 1172 (strain MLY22)
Kind of data set: initial extracellular alkalinization (H+ symport) in unbuffered yeast cell suspension, Michaelis-Menten fit. It counts as cell-based. The settings on record: pH 5, proton symport, one H+ per polyol assumed, maltose-grown S. cerevisiae cells. The source says: initial extracellular alkalinization (H+ symport) in unbuffered yeast cell suspension, Michaelis-Menten fit on DhSgl1

For another data set, the target named is T2, DhSyl1 (Debaryomyces hansenii, UniProt B5RT81).
T2 construct: gene DEHA2C05896g; full-length ORF (649 aa) without stop, C-terminal GFP, plasmid pUG35, in S. cerevisiae YSH 1172 (strain MLY9); any CUG codon is read as Leu in the host
T2 sequence (B5RT81 1-649): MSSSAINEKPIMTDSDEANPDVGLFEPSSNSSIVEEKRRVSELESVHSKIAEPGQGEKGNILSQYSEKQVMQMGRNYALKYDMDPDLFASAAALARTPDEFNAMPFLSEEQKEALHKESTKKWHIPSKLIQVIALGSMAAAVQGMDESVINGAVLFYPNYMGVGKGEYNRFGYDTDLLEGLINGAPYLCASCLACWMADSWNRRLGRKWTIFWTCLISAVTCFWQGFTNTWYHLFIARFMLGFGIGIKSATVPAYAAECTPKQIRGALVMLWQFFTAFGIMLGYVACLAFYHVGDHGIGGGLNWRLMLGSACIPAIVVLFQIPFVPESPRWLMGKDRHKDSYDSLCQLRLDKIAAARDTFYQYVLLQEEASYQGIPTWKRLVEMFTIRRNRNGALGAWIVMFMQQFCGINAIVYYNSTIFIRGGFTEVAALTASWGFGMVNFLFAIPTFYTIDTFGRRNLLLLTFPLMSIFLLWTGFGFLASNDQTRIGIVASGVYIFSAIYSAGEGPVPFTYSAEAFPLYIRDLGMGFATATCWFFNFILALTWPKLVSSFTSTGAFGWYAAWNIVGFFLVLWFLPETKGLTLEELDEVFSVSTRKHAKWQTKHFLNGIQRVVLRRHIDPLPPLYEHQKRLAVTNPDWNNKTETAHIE
Kind of data set: inhibition of [U-14C] sorbitol uptake. It counts as cell-based. The settings on record: 1.5 mM [U-14C] sorbitol, 20 mM mannitol.

Substrate in data set [1]: OC[C@@H](O)[C@@H](O)[C@H](O)[C@H](O)CO
Nature of the data set: initial extracellular alkalinization (H+ symport) in unbuffered yeast cell suspension, Michaelis-Menten fit. Format: cell-based, Debaryomyces hansenii. The settings on record: pH 5, proton symport, one H+ per polyol assumed, maltose-grown S. cerevisiae cells. The source says: (§1) initial extracellular alkalinization (H+ symport) in unbuffered yeast cell suspension, Michaelis-Menten fit on DhSyl1

Substrate in data set [2]: OC[C@@H](O)[C@@H](O)[C@@H](O)CO
Described as above. Format: cell-based, Debaryomyces hansenii. The settings on record: pH 5, proton symport, one H+ per polyol assumed, maltose-grown S. cerevisiae cells.
Text: as §1

Substrate in data set [3]: OC[C@@H](O)[C@H](O)[C@H](O)[C@@H](O)CO
The description is as above. Format: cell-based, Debaryomyces hansenii. The following applies: pH 5, proton symport, one H+ per polyol assumed, maltose-grown S. cerevisiae cells.
Text: as §1

Substrate in data set [4]: OC[C@@H](O)C(O)[C@H](O)CO
Described as above. Format: cell-based, Debaryomyces hansenii. The settings on record: pH 5, proton symport, one H+ per polyol assumed, maltose-grown S. cerevisiae cells.
Text: as §1

Substrate in data set [5]: OC[C@@H](O)[C@@H](O)[C@H](O)[C@@H](O)CO
The data set is described as above. It counts as cell-based, Debaryomyces hansenii. The settings on record: pH 5, proton symport, one H+ per polyol assumed, maltose-grown S. cerevisiae cells.
Text: as §1

Substrate in data set [6]: OC[C@@H](O)[C@@H](O)[C@H](O)[C@H](O)CO
The description is as above. It counts as cell-based, Debaryomyces hansenii. The following applies: pH 5, proton symport, one H+ per polyol assumed, maltose-grown S. cerevisiae cells. The source says:
(§2) initial extracellular alkalinization (H+ symport) in unbuffered yeast cell suspension, Michaelis-Menten fit on DhSyl2
This is another data set of the same source.

Substrate in data set [7]: OC[C@@H](O)[C@@H](O)[C@@H](O)CO
The description is as above. The following applies: pH 5, proton symport, one H+ per polyol assumed, maltose-grown S. cerevisiae cells. Format: cell-based, Debaryomyces hansenii.
Text: as §2
This is another data set of the same source.

Substrate in data set [8]: OC[C@@H](O)C(O)[C@H](O)CO
The description is as above. Format: cell-based, Debaryomyces hansenii. The settings on record: pH 5, proton symport, one H+ per polyol assumed, maltose-grown S. cerevisiae cells.
Text: as §2
The source holds these as a separate data set.

Substrate in data set [9]: OC[C@@H](O)[C@@H](O)[C@H](O)[C@@H](O)CO
The data set is described as above. The settings on record: pH 5, proton symport, one H+ per polyol assumed, maltose-grown S. cerevisiae cells. Format: cell-based, Debaryomyces hansenii.
Text: as §2
This is another data set of the same source.

Substrate in data set [10]: O[C@H]1[C@H](O)[C@H](O)[C@@H](O)[C@H](O)[C@H]1O
Described as above. Format: cell-based, Debaryomyces hansenii. The following applies: pH 5, proton symport, one H+ per polyol assumed, maltose-grown S. cerevisiae cells. The source says:
initial extracellular alkalinization (H+ symport) in unbuffered yeast cell suspension, Michaelis-Menten fit on DhSyi1

T1 sequence (Q6BN62 entry or part of it): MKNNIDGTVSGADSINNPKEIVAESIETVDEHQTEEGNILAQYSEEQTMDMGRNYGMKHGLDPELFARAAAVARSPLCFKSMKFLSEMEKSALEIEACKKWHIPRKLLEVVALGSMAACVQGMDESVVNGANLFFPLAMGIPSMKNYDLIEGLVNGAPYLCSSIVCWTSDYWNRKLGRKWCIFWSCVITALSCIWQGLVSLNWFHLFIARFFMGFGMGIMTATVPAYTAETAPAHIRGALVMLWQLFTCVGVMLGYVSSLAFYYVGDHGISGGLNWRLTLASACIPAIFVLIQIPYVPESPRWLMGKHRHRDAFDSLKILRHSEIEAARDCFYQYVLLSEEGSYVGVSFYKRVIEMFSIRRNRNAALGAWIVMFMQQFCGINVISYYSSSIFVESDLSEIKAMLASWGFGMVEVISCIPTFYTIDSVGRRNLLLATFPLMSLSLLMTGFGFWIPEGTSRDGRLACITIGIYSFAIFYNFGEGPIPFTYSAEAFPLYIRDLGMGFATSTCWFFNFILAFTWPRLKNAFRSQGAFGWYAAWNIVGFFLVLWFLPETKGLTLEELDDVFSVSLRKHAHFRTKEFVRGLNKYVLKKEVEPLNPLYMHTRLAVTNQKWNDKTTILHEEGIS

Regarding `OC[C@@H](O)[C@H](O)[C@H](O)[C@@H](O)CO` [D-Galactitol], the Michaelis-Menten constant (Km) at DhSgl1 stood at 1.93 ± 0.77 mM.

As to `OC[C@@H](O)[C@@H](O)[C@H](O)[C@H](O)CO` [D-Mannitol], the “% reduction of sorbitol uptake at 20 mM” value on DhSyl1 amounted to 70%.

B1: DhSyl1 (Debaryomyces hansenii CBS767) (protein)
chain: T2 sequence (B5RT81 1-649)
notes: full-length ORF (649 aa) without stop, C-terminal GFP, plasmid pUG35, in S. cerevisiae YSH 1172 (strain MLY9); any CUG codon is read as Leu in the host
Regarding B1, the Michaelis-Menten constant (Km) in data set [1] turned out to be 0.30 ± 0.09 mM; in data set [2], 11.44 ± 4.46 mM; in data set [3], 12.33 ± 1.50 mM; in [4] it was 0.96 ± 0.32 mM; in data set [5] it was 11.51 ± 2.50 mM.

B2: DhSyl2 (Debaryomyces hansenii CBS767) (protein)
chain: MPSETNPEKPVALRSDNPHEENGLFEHSSNSSFNEKRRVSELESIHSKIAEPGQGEKGNILSQYSEKQVMQMGRNYALKYDLDPDLFARAAALARTPDDFNAMPFITEEEKQALHKEHTKKWHIPSKLIQVIALGSMAAAVQGMDESVINGALLFYPNYMGVGKGEYNRFGYDTDMIEGLINGAPYLCASCIACWMSDLWNRHLGRKWTIFWTCLISALTCFWQGFTNTWYHLFIARFMLGFGIGIKSATVPAYAAECTPKQIRGALVMLWQFFTAVGIMFGYVACLAFYHVGDHGIGGGLNWRLMLGSACIPAIIVLFQIPFVPESPRWLMGKDRHKDSYDSLCQLRLDKIAAARDTFYQYVLLQEEASYQGIPTWKRLVEMFTIRRNRNGALGAWIVMFMQQFCGINAIVYYNSTIFIQGGFTEVDALTASWGFGMVNFLFAIPTFYTIDTFGRRNLLLFTFPLMALFLIWTGLGFVAEDGTKTQTGIVASGVYIFSAIYSAGEGPVPFTYSAEAFPLYIRDIGMGFATATCWFFNFILALTWPKLVSSFGRTGAFMWYAAWNIAGFFMVLWFLPETKGLTLEELDEVFSVSTRKHAIYQTKSILNSFQRVVLRRHIDPLPPLYEHQKRLAVTNPDWNNKTETAHIE
notes: full-length ORF (649 aa) without stop, C-terminal GFP, plasmid pUG35, in S. cerevisiae YSH 1172 (strain MLY12); any CUG codon is read as Leu in the host
Regarding B2, the Km turned out to be 0.93 ± 0.16 mM in data set [6], 18.31 ± 3.23 mM in data set [7], 0.46 ± 0.21 mM in data set [8] and 13.82 ± 2.12 mM in data set [9].

B3: DhSyi1 (Debaryomyces hansenii CBS767) (protein)
chain: MATEDKELGVVITDVSKLSEKIEEQNNIISKGGSVDDYLYEKRPWWKVNYLVRLNFCIFLITLSSTNNGYDGSMLNGLQSVSYWPEKMGNPQGSVLGALSNGNVFGVVLSFVCASWLADKFGRWRCIFVGQTITILGSILQGVSTNYGFFLASRIILGFGVGIAGVSSPSLISELAYPTHRATATTFYNVCWYLGAIIAAWVTYGTLNIENDYSWRIPSYLQAALPCLQIAFFWMVPESPRYLINKDRISDAEKVLRKFHAGGETHERANDLVSFEIEEIQAALEIEKLSSNSRYSDFITMPTFRKRLFLAVFVAVIMQLSGNGLVSYYLNKVLNSIGITDPHEQLKINGCLMVYNLVISSVVASVAGRFKRRSMFLICTILMLVFYVIWTILSAINQQRNFEQKSLGNGVIAMIFFYYLAYDIGANGLPFLYITEIMPYSHRAKGMNIFTVSQNIIIIFNGFVNPIAMDAIEWKYYIVYCCILAVEVITVLFTFVETSAYTLEEVAKVFGDDPGQTLIHLSSAPPKPEVGHIETV
notes: full-length ORF (536 aa) without stop, C-terminal GFP, plasmid pUG35, in S. cerevisiae YSH 1172 (strain MLY23); any CUG codon is read as Leu in the host
On to B3, for which the Michaelis-Menten constant (Km) in data set [10] came out at 18.64 ± 9.23 mM.
